The target of assay [1] is T1, apolipoprotein A-I (mouse), Q00623.
T1 chain: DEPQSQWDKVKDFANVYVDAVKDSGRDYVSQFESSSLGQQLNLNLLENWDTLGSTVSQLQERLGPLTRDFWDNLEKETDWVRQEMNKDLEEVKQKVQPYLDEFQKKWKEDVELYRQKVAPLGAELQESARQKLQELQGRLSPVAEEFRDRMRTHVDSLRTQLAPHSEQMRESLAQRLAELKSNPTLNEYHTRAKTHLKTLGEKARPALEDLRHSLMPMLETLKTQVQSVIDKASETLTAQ
The assay can be described thus: peptide on Dynabeads, 5% mouse plasma, LC-MS/MS.

In assay [2] the target is T2, apolipoprotein A-IV (mouse), P06728.
T2 chain: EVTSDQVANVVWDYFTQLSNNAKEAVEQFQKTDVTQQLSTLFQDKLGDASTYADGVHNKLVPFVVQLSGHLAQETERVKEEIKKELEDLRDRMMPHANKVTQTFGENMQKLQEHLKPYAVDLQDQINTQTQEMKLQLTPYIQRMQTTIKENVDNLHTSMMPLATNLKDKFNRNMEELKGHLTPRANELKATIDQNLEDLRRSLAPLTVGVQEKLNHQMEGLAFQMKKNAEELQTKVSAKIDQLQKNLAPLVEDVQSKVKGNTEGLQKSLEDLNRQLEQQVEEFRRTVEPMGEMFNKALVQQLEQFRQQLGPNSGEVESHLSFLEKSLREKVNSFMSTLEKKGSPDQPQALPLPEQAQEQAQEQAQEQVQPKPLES
The assay can be described thus: peptide on Dynabeads, 5% mouse plasma, LC-MS/MS.

Assay [3] addresses T3, apolipoprotein C-I (mouse), P34928.
T3 chain: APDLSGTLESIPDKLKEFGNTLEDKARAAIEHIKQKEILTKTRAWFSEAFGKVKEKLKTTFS
Kind of assay: peptide on Dynabeads, 5% mouse plasma, LC-MS/MS.

Assay [4] deals with serum albumin (mouse), P07724. Kind of assay: peptide on Dynabeads, 5% mouse plasma, LC-MS/MS.
serum albumin (mouse), P07724, sequence (P07724 25-608 limits assumed): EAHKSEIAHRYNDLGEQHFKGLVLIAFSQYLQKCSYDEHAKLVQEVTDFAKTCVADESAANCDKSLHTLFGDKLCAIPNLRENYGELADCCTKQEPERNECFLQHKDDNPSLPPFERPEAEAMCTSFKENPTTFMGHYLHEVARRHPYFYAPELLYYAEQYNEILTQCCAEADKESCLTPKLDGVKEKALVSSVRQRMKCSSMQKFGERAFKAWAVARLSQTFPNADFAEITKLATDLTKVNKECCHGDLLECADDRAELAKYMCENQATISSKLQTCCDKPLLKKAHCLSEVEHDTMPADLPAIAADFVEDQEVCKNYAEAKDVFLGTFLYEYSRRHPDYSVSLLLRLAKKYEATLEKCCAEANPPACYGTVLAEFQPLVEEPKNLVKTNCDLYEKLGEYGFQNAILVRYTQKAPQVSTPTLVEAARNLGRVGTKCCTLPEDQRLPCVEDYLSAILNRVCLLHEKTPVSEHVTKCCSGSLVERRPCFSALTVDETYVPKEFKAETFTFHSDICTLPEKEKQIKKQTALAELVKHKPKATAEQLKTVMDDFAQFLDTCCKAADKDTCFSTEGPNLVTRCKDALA
Assay [5] addresses T1, apolipoprotein A-I (mouse), Q00623. Kind of assay: ratio of MS intensity on L-form beads to that on D-form (C10-KR8d) beads.
In assay [6] the target is T2, apolipoprotein A-IV (mouse), P06728. The description is as above.
Assay [7] deals with T3, apolipoprotein C-I (mouse), P34928. The description is as above.
In assay [8] the target is serum albumin (mouse), P07724. Described as above.

Among the data in patent US20240294572A1, “Antimicrobial Peptides” (priority 2021, published 2024) are intensity (mass spectrometry) and L/D Ratio values, retold here.

For the molecule CKRIWQRIK (modifications not checked), the intensity (mass spectrometry) was 4.29e+09 in assay [1], 3.21e+08 in assay [2], 4.35e+08 in assay [3] and 3.72e+10 in assay [4]. The L/D Ratio came out at 3.54 in assay [5], 2.89 in assay [6], 2.08 in assay [7] and 2.28 in assay [8].
